Experimental data from EP4269424A1, “NOVEL ANTIVIRAL COMPOUNDS AND USE THEREOF” (priority 2022, dated 2023).

Biological target: G3BP1 (human), Q13283
Assay: ITC at 25 °C, peptide titrated into G3BP1

Sequence of G3BP1 (human), Q13283 (Q13283 1-139 limits assumed): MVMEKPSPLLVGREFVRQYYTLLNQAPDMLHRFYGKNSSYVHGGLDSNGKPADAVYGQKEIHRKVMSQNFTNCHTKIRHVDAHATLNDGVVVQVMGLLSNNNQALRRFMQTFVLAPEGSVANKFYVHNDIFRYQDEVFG

B1: G3BPi WT peptide without CPP (peptide)
peptide: LTFGDFDEHEVDALASGITFGDFDDW
modifications: not checked
  Kd: 3.6 µM
